From US12296018B2, “Albumin binding peptide-drug (AlBiPeD) conjugates and methods of making and using same” (priority 2018, dated 2025)
Values joined by “and” are separate entries in the source; they are usually repeats but may differ in a detail not shown here. Equal entries are not always repeated.

Columns and labels:
[1] = target: T1, human serum albumin (HSA) (Homo sapiens, UniProt P02768); test: Native-PAGE mobility shift with HSA; assay type: binding; details: 1:1 molar ratio
T1 construct: purchased Sigma-Aldrich (St. Louis, MO)
Experimental: (§1) The gel was stained with SimplyBlue stain according to the manufacturer's instructions and imaged using the Gel Doc imaging system (Bio-Rad, Hercules, CA). Isothermal titration calorimetry was done using a standard volume Nano ITC from TA instruments (Lindon, Utah). […] The calorimetric data were analyzed by NanoAnalyze software (TA instruments, Lindon, UT) and were fit to an independent binding site model to compute the thermodynamic parameters including dissociation constant (KD), binding stoichiometry (n), enthalpy (ΔH), and entropy (ΔS).

[2] = target: T2, mouse serum albumin (MSA) (Mus musculus, UniProt P07724); test: Isothermal titration calorimetry of ABD-Dox with MSA; assay type: binding; details: ITC, 37° C., PBS
T2 construct: purchased Sigma-Aldrich (St. Louis, MO)
Experimental: as §1

[3] = target: T1, human serum albumin (HSA); test: Isothermal titration calorimetry of ABD-Dox with HSA; assay type: binding; details: ITC, 37° C., PBS
Experimental: as §1

[4] = Dose-escalation study, maximum tolerated dose; assay type: in vivo, BALB/c mice
Experimental: With these encouraging biodistribution results in hand, tumor regression in vivo by ABD-Dox was investigated. The maximum tolerated dose (MTD) of ABD-Dox was established in healthy mice. A range of doses of ABD-Dox were injected into healthy BALB/c mice, and body weight loss and mortality of the mice were monitored over a two-week period to assess systemic toxicity. […] Using these criteria, the MTD was determined to be 20 mg Dox Equiv.kg^−1 for ABD-Dox (FIG. 7) and 10 mgkg^−1 BW MTD of free Dox (FIG. 8).

[5] = Tissue biodistribution in C26 tumor-bearing BALB/c mice; assay type: in vivo
Source text: The tissue concentration of Dox.

[6] = target: T2, mouse serum albumin (MSA); test: Native-PAGE mobility shift with MSA; assay type: binding; details: 1:1 molar ratio
Experimental: as §1

T2 sequence (P07724 25-608): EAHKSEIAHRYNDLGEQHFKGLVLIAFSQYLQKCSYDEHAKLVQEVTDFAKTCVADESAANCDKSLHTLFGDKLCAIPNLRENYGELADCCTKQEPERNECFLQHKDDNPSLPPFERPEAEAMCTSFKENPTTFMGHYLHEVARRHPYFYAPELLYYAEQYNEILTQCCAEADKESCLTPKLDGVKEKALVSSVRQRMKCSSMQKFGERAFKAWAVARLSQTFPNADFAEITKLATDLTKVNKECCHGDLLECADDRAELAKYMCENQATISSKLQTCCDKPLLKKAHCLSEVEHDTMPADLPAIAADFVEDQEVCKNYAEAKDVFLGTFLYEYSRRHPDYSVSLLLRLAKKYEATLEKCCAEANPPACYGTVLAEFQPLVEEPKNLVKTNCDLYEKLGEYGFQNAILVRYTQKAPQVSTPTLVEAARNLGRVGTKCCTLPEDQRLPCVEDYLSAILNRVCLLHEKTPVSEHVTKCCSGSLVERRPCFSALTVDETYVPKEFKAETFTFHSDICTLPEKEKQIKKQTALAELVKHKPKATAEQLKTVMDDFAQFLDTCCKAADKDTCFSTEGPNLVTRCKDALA

ABD-Dox (GLAEAKVLANRELDKYGVSDYYKNLINNAKTVEGVKALIDEILAALPCGGCGGCGGCGG)
binding to HSA by mobility shift [1]: confirmed binding
ΔH [2]: -4.45 kcal/mol
ΔS [2]: 76.6 Jmol^−1K^−1
n (binding stoichiometry) ([2]; independent binding site model): 0.94 and 0.9
ΔH [3]: -6.72 kcal/mol
ΔS [3]: 41.5 Jmol^−1K^−1
n (binding stoichiometry) ([3]; independent binding site model): 1.03 and 1.0
maximum tolerated dose (MTD) ([4]; i.v., healthy BALB/c mice, two weeks, no mortality or body weight loss greater than 15%): 20 mg Dox Equiv.kg^−1
maximum tolerated dose, fold higher than free drug ([4]; mouse, in vivo): 2 fold
AUC in other tissues compared to free Dox ([5]; 2 to 72 h): No significant difference
AUC in the spleen, lower than free Dox ([5]; 2 to 72 h): ~50%
AUC in the tumor, fold greater than free Dox ([5]; 2 to 72 h): 16 fold
concentration in kidneys compared to free Dox ([5]; 2 h): lower concentration
concentration in liver compared to free Dox ([5]; 2 h): lower concentration
concentration in muscle compared to free Dox ([5]; 2 h): lower concentration
concentration in spleen compared to free Dox ([5]; 2 h): lower concentration
concentration in heart compared to free Dox ([5]; 24 h): higher concentration
concentration in liver compared to free Dox ([5]; 24 h): higher concentration
concentration in lungs compared to free Dox ([5]; 24 h): higher concentration
concentration in muscle compared to free Dox ([5]; 24 h): higher concentration
concentration in spleen compared to free Dox ([5]; 24 h): lower concentration
accumulation in kidneys compared to free Dox ([5]; 72 h): higher
accumulation in liver compared to free Dox ([5]; 72 h): higher
accumulation in lungs compared to free Dox ([5]; 72 h): higher
accumulation in muscle compared to free Dox ([5]; 72 h): higher
tumor accumulation, fold greater than free Dox ([5]; 72 h): ~120 fold
binding to MSA by mobility shift [6]: confirmed binding
